The values below are quoted from earlier work in publication PMC11401910, “Dual client binding sites in the ATP-independent chaperone SurA” (Nature Communications, 2024).

The target in this series is OmpX (Escherichia coli) (UniProt P0A917). Particulars: cited from earlier work.
OmpX (Escherichia coli), sequence (P0A917 24-171): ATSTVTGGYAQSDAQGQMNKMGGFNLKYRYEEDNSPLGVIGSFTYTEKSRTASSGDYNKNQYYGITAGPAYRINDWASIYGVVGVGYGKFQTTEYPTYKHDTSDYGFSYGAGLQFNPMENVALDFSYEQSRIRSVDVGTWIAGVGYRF

SurA, sequence (P0ABZ6 21-428): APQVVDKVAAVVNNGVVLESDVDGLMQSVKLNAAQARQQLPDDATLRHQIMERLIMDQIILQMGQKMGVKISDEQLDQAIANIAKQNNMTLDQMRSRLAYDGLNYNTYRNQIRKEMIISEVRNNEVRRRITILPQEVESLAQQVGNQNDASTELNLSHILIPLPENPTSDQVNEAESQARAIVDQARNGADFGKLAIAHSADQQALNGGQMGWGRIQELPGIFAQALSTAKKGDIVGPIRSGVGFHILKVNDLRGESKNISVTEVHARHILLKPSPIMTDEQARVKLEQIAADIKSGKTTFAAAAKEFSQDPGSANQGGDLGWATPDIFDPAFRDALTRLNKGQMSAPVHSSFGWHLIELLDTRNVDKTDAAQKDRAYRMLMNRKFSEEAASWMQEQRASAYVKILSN

For SurA (from UniProt P0ABZ6), the Kd is 1 µM.

The Kd is the constant that tells how readily two partners part at equilibrium.
